# Measurements published in PMC5602300.
# Assays:
# [1] = molecular target: taxol-stabilized microtubules (pelleting assays) (UniProt P02550); test: co-sedimentation; as a5 with increasing microtubules, in the presence of an added Ndc80 complex (1 µM Ndc80 Bonsai; Ndc80 Broccoli); apparent
# [2] = molecular target: taxol-stabilized microtubules (pelleting assays) (UniProt P02550); test: co-sedimentation; microtubule pelleting with increasing taxol-stabilized microtubules; ~5 nM Astrin-SKAP complex, BRB80 with 25 mM KCl, 0.5 mg/mL BSA, room temperature 10 min, glycerol cushion; α-SKAP Western blot; apparent
Substance,apparent KD in the presence of 1 µM Ndc80 Bonsai complex [1] [nM],Kd [2] [nM]
"Astrin 1–693 complex (Astrin 1–693, SKAP, LC8, MYCBP) (from UniProt Q96R06 1-693; P63167 1-89; Q99417 1-103)",1400,3200
"Astrin 465–693 complex (Astrin 465–693, SKAP, LC8, MYCBP) (from UniProt Q96R06 465-693; P63167 1-89; Q99417 1-103)",1700,2200
